Results on two molecules are retold here after paper PMC5874296, “A CTP Synthase Undergoing Stage-Specific Spatial Expression Is Essential for the Survival of the Intracellular Parasite Toxoplasma gondii” (Frontiers in Cellular and Infection Microbiology, 2018).

For data set [1], the target named is T1, TgCTPS (CTP synthase) (Toxoplasma gondii, UniProt B9Q379).
T1 sequence (B9Q379 1-652): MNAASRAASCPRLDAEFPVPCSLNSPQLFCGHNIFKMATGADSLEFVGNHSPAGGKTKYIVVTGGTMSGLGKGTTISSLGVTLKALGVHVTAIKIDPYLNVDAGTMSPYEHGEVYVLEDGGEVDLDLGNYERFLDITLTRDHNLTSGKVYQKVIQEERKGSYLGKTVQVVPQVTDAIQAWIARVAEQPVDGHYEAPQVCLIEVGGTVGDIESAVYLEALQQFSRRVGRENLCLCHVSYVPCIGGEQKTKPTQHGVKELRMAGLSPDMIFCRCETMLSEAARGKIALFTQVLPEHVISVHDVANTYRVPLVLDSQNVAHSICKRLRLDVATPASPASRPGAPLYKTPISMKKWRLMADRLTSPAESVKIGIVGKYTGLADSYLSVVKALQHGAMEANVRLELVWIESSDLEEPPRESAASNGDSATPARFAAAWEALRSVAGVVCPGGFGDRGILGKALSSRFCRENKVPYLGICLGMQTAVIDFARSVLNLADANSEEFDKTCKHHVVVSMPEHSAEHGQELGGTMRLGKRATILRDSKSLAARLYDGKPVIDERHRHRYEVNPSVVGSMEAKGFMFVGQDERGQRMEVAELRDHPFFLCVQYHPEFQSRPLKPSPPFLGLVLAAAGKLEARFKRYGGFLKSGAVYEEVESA
Nature of the data set: pyruvate kinase/lactate dehydrogenase-coupled assay with recombinant enzyme. Type of data set: biochemical.

Substrate in data set [2]: Nc1ncnc2c1ncn2[C@@H]1O[C@H](COP(=O)(O)OP(=O)(O)OP(=O)(O)O)[C@@H](O)[C@H]1O
Nature of the data set: steady-state kinetics, coupled enzyme assay (Km). To be noted: Mg2+; 37.0 °C. Type of data set: biochemical, Toxoplasma gondii.

Substrate in data set [3]: NC(=O)CC[C@H](N)C(=O)O
Nature of the data set: steady-state kinetics, coupled enzyme assay (Km). Type of data set: biochemical, Toxoplasma gondii. Particulars: Mg2+ negative cooperativity in the binding of L-glutamine to the active site; 37.0 °C.

Substrate in data set [4]: O=c1ccn([C@@H]2O[C@H](COP(=O)(O)OP(=O)(O)OP(=O)(O)O)[C@@H](O)[C@H]2O)c(=O)[nH]1
Nature of the data set: purified protein. The format is biochemical, Toxoplasma gondii. To be noted: Mg2+.

Take `[N-]=[N+]=CC(=O)CC[C@H](N)C(=O)O` [DON, 6-diazo-5-oxo-L-norleucine]: in data set [1], the IC50 is ~40 nM.

B1: TgCTPS (CTP synthase) (Toxoplasma gondii) (protein)
chain: MNAASRAASCPRLDAEFPVPCSLNSPQLFCGHNIFKMATGADSLEFVGNHSPAGGKTKYIVVTGGTMSGLGKGTTISSLGVTLKALGVHVTAIKIDPYLNVDAGTMSPYEHGEVYVLEDGGEVDLDLGNYERFLDITLTRDHNLTSGKVYQKVIQEERKGSYLGKTVQVVPQVTDAIQAWIARVAEQPVDGHYEAPQVCLIEVGGTVGDIESAVYLEALQQFSRRVGRENLCLCHVSYVPCIGGEQKTKPTQHGVKELRMAGLSPDMIFCRCETMLSEAARGKIALFTQVLPEHVISVHDVANTYRVPLVLDSQNVAHSICKRLRLDVATPASPASRPGAPLYKTPISMKKWRLMADRLTSPAESVKIGIVGKYTGLADSYLSVVKALQHGAMEANVRLELVWIESSDLEEPPRESAASNGDSATPARFAAAWEALRSVAGVVCPGGFGDRGILGKALSSRFCRENKVPYLGICLGMQTAVIDFARSVLNLADANSEEFDKTCKHHVVVSMPEHSAEHGQELGGTMRLGKRATILRDSKSLAARLYDGKPVIDERHRHRYEVNPSVVGSMEAKGFMFVGQDERGQRMEVAELRDHPFFLCVQYHPEFQSRPLKPSPPFLGLVLAAAGKLEARFKRYGGFLKSGAVYEEVESA
Turning to B1, in data set [2], the Michaelis constant (Km) worked out at 540 ± 50 µM, the catalytic constant (kcat) stood at 36 s⁻¹ and the specificity constant (kcat/Km) came out at 66700 M⁻¹ s⁻¹. For the same molecule, in data set [3], the Km was determined as 260 ± 40 µM, the kcat amounted to 29.6 s⁻¹ and the catalytic efficiency (kcat/Km) turned out to be 114000 M⁻¹ s⁻¹. In data set [4], the K0.5 worked out at 0.47 ± 0.03 mM.
